Data taken from the RNAGym collection of RNA variant scans (doi:10.1073/pnas.2313332121).

B1: TPR t1 (parent)
chain: GACCAAUCUGCCCUCAGAGCUCGAGAACAUCUUCGGAUGCAGAGGAGGCAGGCUUCGGUGGCGCGAUAGCGCCAACGUCCUCAACCUCCAAUGCAUCCCACCACAUGAUGAUGCCUGAAGAGCCUUGGUUUUUUG

Variants of: B1
Test: polymerase ribozyme fitness, log enrichment relative to wild type (log ratio); higher = more active; in vitro selection for triplet polymerase activity
Method in brief: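 In triplicate, a single round of in vitro selection was run on each mutant library, PCR-built and transcribed, covering one subunit of a heterodimeric triplet polymerase ribozyme. Frozen incubation at −7 °C followed annealing with a biotinylated primer, partner subunit and triplets, and extended constructs were then gel-excised, streptavidin-captured and taken through RT-PCR. Fitness is the logarithm of genotype enrichment over wild-type enrichment, from inverse-variance-weighted replicate averages of Illumina-sequenced inputs and outputs. […] only genotypes with ≥10 input reads and ≥1 read per output were kept.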

First: A27G G93C C104U
Second: A27U C49U
The “polymerase ribozyme fitness (log ratio)” value of the first is higher: -3.11 for the first, -3.64 for the second.

Compared with C28U G93A C101U, A26U G39A C49G G61A C88U C124G is lower in “polymerase ribozyme fitness (log ratio)” value: -3.39 for the first, -3.77 for the second.

First: A29C G61U A90G U116G
Second: A26U G61U U112C
The “polymerase ribozyme fitness (log ratio)” value of the first is lower: -5.84 for the first, -2.62 for the second.

Compared with C28G G110A G128U, A26U C72A U78C A91C A118G A121U U126C is lower in “polymerase ribozyme fitness (log ratio)” value: -2.89 for the first, -5.75 for the second.

First: C28A C72G
Second: A27G C40U G61C
The “polymerase ribozyme fitness (log ratio)” value of the first is higher: -2.92 for the first, -4.06 for the second.

Going from A27U C40A C70A to C28A C86U A111U, the “polymerase ribozyme fitness (log ratio)” value rises from -6.74 to -2.22.

First: C28A C70G C79G U130C
Second: C28G A95U U125A
The “polymerase ribozyme fitness (log ratio)” value of the first is lower: -6.51 for the first, -3.63 for the second.

A26U C62U G71C G93A G120U and A26U G135A are within 0.2 log units of each other in “polymerase ribozyme fitness (log ratio)” value: -3.6 for the first, -3.67 for the second.

First: C28U C70U
Second: A29G G35C C98G
The “polymerase ribozyme fitness (log ratio)” value of the first is higher: -2.13 for the first, -3.4 for the second.

Going from A27G U55A to A27U G60U G128A, the “polymerase ribozyme fitness (log ratio)” value falls from -2.6 to -4.65.

Compared with A26U A119G, C28A A43U C86G is lower in “polymerase ribozyme fitness (log ratio)” value: -2.12 for the first, -5.44 for the second.

Going from A27G G61C C88G G128A to C28A A75G G120U U129G, the “polymerase ribozyme fitness (log ratio)” value rises from -7.26 to -6.26.

First: C28G U87G
Second: C28U C56A
The “polymerase ribozyme fitness (log ratio)” value of the first is lower: -2.01 for the first, -1.65 for the second.

Going from C28G G39U C53U G63C C124A to A27U C114A, the “polymerase ribozyme fitness (log ratio)” value falls from -3.26 to -3.53.

Compared with C28G A41C, A26G G71A is higher in “polymerase ribozyme fitness (log ratio)” value: -4.58 for the first, -2.97 for the second.

Compared with A27U C53A C56A U131G, A27U C72U C85G A111U U132A is lower in “polymerase ribozyme fitness (log ratio)” value: -2.89 for the first, -4.04 for the second.

First: A27G C49A U78C
Second: C28U C56G C73A
The “polymerase ribozyme fitness (log ratio)” value of the first is higher: -2.36 for the first, -4.7 for the second.

Compared with A29G C76A G120U, A26G G60U C97U is lower in “polymerase ribozyme fitness (log ratio)” value: -1.97 for the first, -2.92 for the second.

First: A26U C70A
Second: A26U C70U
The “polymerase ribozyme fitness (log ratio)” value of the first is lower: -5.16 for the first, -4.13 for the second.

First: A27U G47U
Second: A26U C82G C97A C98A U112A
The “polymerase ribozyme fitness (log ratio)” value of the first is higher: -2.07 for the first, -6.74 for the second.

Compared with A27U U54A A75U U78C G127C, A26U is higher in “polymerase ribozyme fitness (log ratio)” value: -6.04 for the first, -2.98 for the second.

First: A26U C101A C114A C123G
Second: C28U C40A C123A
The “polymerase ribozyme fitness (log ratio)” value of the first is lower: -6.37 for the first, -3.16 for the second.

First: A29G A91G G113A
Second: A26U C53U G71C A118U
The “polymerase ribozyme fitness (log ratio)” value of the first is higher: -2.3 for the first, -3.17 for the second.

First: A29G A37C
Second: C28A C79A A111C U112G
The “polymerase ribozyme fitness (log ratio)” value of the first is higher: -2.19 for the first, -6.04 for the second.

First: A26G G120A
Second: A29C G71C A95U C124U
The “polymerase ribozyme fitness (log ratio)” value of the first is higher: -0.696 for the first, -4.83 for the second.

Compared with A27U C73U A75G, A27U C62G is lower in “polymerase ribozyme fitness (log ratio)” value: -3.03 for the first, -5.76 for the second.

A27U C73A U129C and A27U G44C G47C U112A are within 0.2 log units of each other in “polymerase ribozyme fitness (log ratio)” value: -3.27 for the first, -3.34 for the second.

Compared with A27U C40U C72G A100C, A29C G52C C114U is higher in “polymerase ribozyme fitness (log ratio)” value: -7.09 for the first, -4.25 for the second.

First: A27G G45A
Second: C28U G45A C70U C124U
The “polymerase ribozyme fitness (log ratio)” value of the first is higher: -2.35 for the first, -2.79 for the second.

First: A27G A50C A111U
Second: C28G G71U
The “polymerase ribozyme fitness (log ratio)” value of the first is lower: -3.29 for the first, -2.39 for the second.

Going from A26U U54C U133A to A27U G44U G69C C89U, the “polymerase ribozyme fitness (log ratio)” value falls from -4 to -6.05.

Compared with C28U G71C C124U, A26U G44A G48U C82U G122A is lower in “polymerase ribozyme fitness (log ratio)” value: -2.51 for the first, -6.34 for the second.

First: A27G G48C G71C G127C
Second: A27C C123A
The “polymerase ribozyme fitness (log ratio)” value of the first is lower: -5.17 for the first, -3.14 for the second.

Compared with C28G U38A C86U, A29G C86A U112A C123G is higher in “polymerase ribozyme fitness (log ratio)” value: -5.02 for the first, 0.207 for the second.

Compared with A27U G39C G120U, A27U A105U is lower in “polymerase ribozyme fitness (log ratio)” value: -2.78 for the first, -4.58 for the second.

Going from A27U C40G U132A to A26U C72G C97G G117U U125A, the “polymerase ribozyme fitness (log ratio)” value falls from -5.01 to -6.79.

Compared with C28U A41C C53G, A27G C40G is higher in “polymerase ribozyme fitness (log ratio)” value: -3.32 for the first, -1.89 for the second.

First: A29C U112A
Second: A26U U96A C114U G117A
The “polymerase ribozyme fitness (log ratio)” value of the first is higher: -2.33 for the first, -5.98 for the second.

C28U C72G and C28U C72U are within 0.2 log units of each other in “polymerase ribozyme fitness (log ratio)” value: -2.23 for the first, -2.26 for the second.

Compared with C28U G48A C53G C89U, A27G C88U U92A C104A U109C A119G U133A is lower in “polymerase ribozyme fitness (log ratio)” value: -3.42 for the first, -7.24 for the second.

First: A29G C56G
Second: C28U C73G G93C
The “polymerase ribozyme fitness (log ratio)” value of the first is higher: -1.53 for the first, -3.34 for the second.

First: A27U G71U G93U
Second: C28U C40U G51C C76A
The “polymerase ribozyme fitness (log ratio)” value of the first is higher: -5.1 for the first, -6.21 for the second.
